Assay results reported in US20260049279A1 (published 2026).

Biological target: T1, ALK peptide on H-2Dd (mouse)
T1 peptide: PGPGRVAKI
Experiment: multimer staining

B1: Clonotype_1 (Table 1) (TCR, V domains shown)
Valpha: QQKVQQSPESLSVPEGGMASFNCTSSDRNFQYFWWYRQHSGEGPKALMSIFSDGDKKEGRFTAHLNKASLHVSLHIRDSQPSDSALYFCAASEHGNNRIFFGDGTQLVVKP
Vbeta: ETAVFQTPNYHVTQVGNEVSFNCKQTLGHDTMYWYKQDSKKLLKIMFSYNNKQLIVNETVPRRFSPQSSDKAHLNLRIKSVEPEDSAVYLCASSQDWDEQYFGPGTRLTVL
binding result: recognises
